# Data: patent publication US20250243289A1 (PROMETHEUS BIOSCIENCES, published 2025)
# Several values for one entry are separate records, joined by “and”; a condition that tells them apart may be missing. Equal entries are not always repeated.
# T1: recombinant human TL1A protein (tumor necrosis factor-like cytokine 1A) (human, UniProt O95150 72-251)
# T1 sequence (looked up): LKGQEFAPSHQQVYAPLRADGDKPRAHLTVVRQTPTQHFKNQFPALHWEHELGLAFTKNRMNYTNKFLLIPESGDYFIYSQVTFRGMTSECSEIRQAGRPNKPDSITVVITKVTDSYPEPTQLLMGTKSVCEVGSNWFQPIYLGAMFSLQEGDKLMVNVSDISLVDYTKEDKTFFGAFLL
# T2: recombinant cynomolgus monkey TL1A protein (cynomolgus monkey, UniProt G7PRK8 72-251)
# T2 sequence: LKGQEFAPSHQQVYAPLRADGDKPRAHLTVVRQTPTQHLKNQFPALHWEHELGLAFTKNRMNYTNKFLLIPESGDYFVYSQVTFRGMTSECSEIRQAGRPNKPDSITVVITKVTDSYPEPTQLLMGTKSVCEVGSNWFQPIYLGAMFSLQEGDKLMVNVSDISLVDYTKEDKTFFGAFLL
# T3: human TL1A, endogenous in human whole blood (human, UniProt O95150 72-251, limits assumed)
# T3 sequence (looked up): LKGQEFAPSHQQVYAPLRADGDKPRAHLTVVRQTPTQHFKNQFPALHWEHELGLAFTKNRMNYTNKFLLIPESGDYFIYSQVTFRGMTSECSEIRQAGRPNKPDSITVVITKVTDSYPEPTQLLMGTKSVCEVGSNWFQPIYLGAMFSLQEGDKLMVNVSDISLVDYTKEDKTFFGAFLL
# T4: recombinant TL1A antigen (UniProt O95150 72-251, limits assumed)
# T4 sequence (looked up): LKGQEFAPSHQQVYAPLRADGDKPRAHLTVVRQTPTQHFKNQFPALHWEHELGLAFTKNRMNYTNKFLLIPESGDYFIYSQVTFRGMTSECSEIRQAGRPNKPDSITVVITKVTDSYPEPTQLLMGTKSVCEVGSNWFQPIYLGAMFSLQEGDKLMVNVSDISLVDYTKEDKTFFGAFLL
# How the values were obtained:
# [1] = biological target: monkey TL1A in the in vitro monkey whole blood IFN-γ assay (monkey); test: cell-based or functional assay
# [2] = biological target: T1, recombinant human TL1A protein (tumor …); test: cell-based or functional assay
# [3] = biological target: T2, recombinant cynomolgus monkey TL1A …; test: cell-based or functional assay
# [4] = biological target: T3, human TL1A, endogenous in human whole …; test: cell-based or functional assay
# recombinant TL1A antigen = biological target: T4, recombinant TL1A antigen; test: ELISA titration against recombinant TL1A antigen
% Inhibition at 1 nM Ig (interferon gamma release in human blood) [4] [%],% Inhibition at 10 nM Ig (interferon gamma release in human blood) [4] [%],Binder,other results
–,–,"anti-TL1A antibody A219 (antibody, V domains shown) VH: QVQLVQSGAEVKKPGASVKVSCKASGFDIQDTYMHWVKQRPGQGLEWMGRIDPASGHTKYDPKFQVRVTITRDTSTSTVYLELSSLRSEDTAVYYCARSGGLPDVWGQGTTVTVSS VL: EIVLTQSPGTLSLSPGERATLSCRASSSVSYMYWYQQKPGQAPRPLIYATSNLASGIPDRFSGSGSGTDFTLTISRLEPEDFAVYYCQQWEGNPRTFGGGTKLEIK","IC50 of the in vitro monkey whole blood IFN-γ release assay [1]: 1.54 nM and 289 ng/mL; inhibition of human TL1A-induced caspase activation in TF-1 cells (IC50) [2]: 0.27 nM; inhibition of monkey TL1A-induced caspase activation in TF-1 cells (IC50) [3]: 0.59 nM; inhibition of the IFN-γ response in monkey whole blood stimulated with immune complex, IL-12 and IL-18 (mean IC50) [3]: 1.54 nM and 289 ng/ml"
51.3,72.4,"A147 (antibody, human IgG1, V domains shown) VH: QVQLVQSGAEVKKPGASVKVSCKASGFDIQDTYMHWVKQRPGQGLEWMGRIEPASGHIKYDPKFQGRVTMTRDTSTSTVYMELSSLRSEDTAVYYCARSGGLPDWWGQGTTVTVSS VL: EIVLTQSPGTLSLSPGERATLSCRASSSVSYMYWYQQKPGQAPRPLIYATSNLASGIPDRFSGSGSGTDFTLTISRLEPEDFAVYYCQQWEGNPRTFGGGTKLEIK",–
48.6,69.8,"A213 (antibody, human IgG1, V domains shown) VH: QVQLVQSGAEVKKPGASVKVSCKASGFDIQDTYMHWVRQRPGQGLEWMGRIDPASGHTKYDPKFQVRVTITTDTSTSTVYMELSSLRSEDTAVYYCARSGGLPDVWGQGTTVTVSS VL: EIVLTQSPGTLSLSPGERATLSCRASSSVSYMYWYQQKPGQAPRPLIYATSNLASGIPDRFSGSGSGTDFTLTISRLEPEDFAVYYCQQWEGNPRTFGGGTKLEIK",–
46.8,71.2,"A212 (antibody, human IgG1, V domains shown) VH: QVQLVQSGAEVKKPGASVKVSCKASGFDIQDTYMHWVRQRPGQGLEWIGRIDPASGHTKYDPKFQVRATITTDTSTSTAYLELSSLRSEDTAVYYCARSGGLPDVWGQGTTVTVSS VL: EIVLTQSPGTLSLSPGERATLSCRASSSVSYMYWYQQKPGQAPRPLIYATSNLASGIPDRFSGSGSGTDFTLTISRLEPEDFAVYYCQQWEGNPRTFGGGTKLEIK",–
36.9,63.2,"A220 (antibody, human IgG1, V domains shown) VH: QVQLVQSGAEVKKPGASVKVSCKASGFDIQDTYMHWVKQRPGQGLEWMGRIDPASGHTKYDPKFQVRVTMTRDTSTSTAYLELSSLRSEDTAVYYCARSGGLPDVWGQGTTVTVSS VL: EIVLTQSPGTLSLSPGERATLSCRASSSVSYMYWYQQKPGQAPRPWIYATSNLASGIPDRFSGSGSGTDFTLTISRLEPEDFAVYYCQQWEGNPRTFGGGTKLEIK",–
46,72.2,"A217 (antibody, human IgG1, V domains shown) VH: QVQLVQSGAEVKKPGASVKVSCKASGFDIQDTYMHWVKQRPGQGLEWMGRIDPASGHTKYDPKFQVRVTITRDTSTSTVYMELSSLRSEDTAVYYCARSGGLPDVWGQGTTVTVSS VL: EIVLTQSPGTLSLSPGERATLSCRASSSVSYMYWYQQKPGQAPRPLIYATSNLASGIPDRFSGSGSGTDFTLTISRLEPEDFAVYYCQQWEGNPRTFGGGTKLEIK",–
59.8,75.2,"A219 (antibody, V domains shown) VH: QVQLVQSGAEVKKPGASVKVSCKASGFDIQDTYMHWVKQRPGQGLEWMGRIDPASGHTKYDPKFQVRVTITRDTSTSTVYLELSSLRSEDTAVYYCARSGGLPDVWGQGTTVTVSS VL: EIVLTQSPGTLSLSPGERATLSCRASSSVSYMYWYQQKPGQAPRPLIYATSNLASGIPDRFSGSGSGTDFTLTISRLEPEDFAVYYCQQWEGNPRTFGGGTKLEIK",–
–,–,"anti-TL1A antibody with heavy chain SEQ ID NO: 379 (S228P, L235E) and light chain SEQ ID NO: 381 (antibody, human IgG4 S228P, kappa, IgG4) heavy: not shown light: EIVLTQSPGTLSLSPGERATLSCRASSSVSYMYWYQQKPGQAPRPLIYATSNLASGIPDRFSGSGSGTDFTLTISRLEPEDFAVYYCQQWEGNPRTFGGGTKLEIKRTVAAPSVFIFPPSDEQLKSGTASVVCLLNNFYPREAKVQWKVDNALQSGNSQESVTEQDSKDSTYSLSSTLTLSKADYEKHKVYACEVTHQGLSSPVTKSFNRGEC",EC50 (recombinant TL1A antigen): 0.324 nM
